The values that follow come from PMC4743974, “Xenobiotic Compounds Degradation by Heterologous Expression of a Trametes sanguineus Laccase in Trichoderma atroviride” (PLoS ONE, 2016).

Substrate in this data set: CCn1c(=NN=c2sc3cc(S(=O)(=O)O)ccc3n2CC)sc2cc(S(=O)(=O)O)ccc21
The experiment in a line: purified protein. The format is biochemical, Trametes sanguinea. The following applies: 100 mM sodium succinate pH 4, room temperature (routine assay conditions).

One may read the Km as the substrate concentration at which the rate is half of its maximum. A word on the kcat: it is the number of substrate molecules converted per active site and unit of time at saturation. The term kcat/Km denotes the turnover number divided by the Michaelis constant.

B1: Recombinant Lcc (TaLcc3 laccase) (Trametes sanguinea) (protein)
chain: AIGPKADLVISDAVVNPDGTPRDAVVVNGAFPGPLISGKKGDHFQLNVINKLTNHTMLKTTSIHWHGLFQEHTNWADGPAFVNQCPIASGHSFLYDFHVPDQAGTYWYHSHLSTQYCDGLRGPLVVYDPHDPQAHLYDVDNDDTVITLADWYHVAAKVGPQFPRGADSTLINGRGRAASDSTAELTVITVEHGKRYRFRLVSISCDPNHTFSIDGHNMTIIEVEGVNSKPLTVDSIQIFAAQRYSFMLNANQPVDNYWIRANPSGGTVGFEGGINSAILRYKGAPDAEPTNTTAPTSVIPLVETNLHPLKPMQVPGRSGIGNVDYAKTLNFNFNGTNFFINNATFTPPTVPVLLQILSGAHSAQDLLPPGSVYTLPPHSAIEITMPATTMAPGSPHPFHLHGHVFAVVRSAGSTEYNYHDPIFRDVVSTGQPGDSVTIRFMTDNPGPWFLHCHIDFHLEAGFAIVFAEDVNEIKYANPVPPSWAELCPIYDKLPESDH
notes: full cDNA with native signal peptide (predicted cleaved between residues 20 and 21), no tag mentioned; secreted by Trichoderma atroviride IMI206040 strain Talcc3; purified; ORF 1557 bp, 519 amino acids
Consider B1, for which the Km worked out at 48.10 ± 4.9 µM, the kcat amounted to 69.7 ± 3.47 s⁻¹ and the kcat/Km amounted to 1.44e+06 M⁻¹ s⁻¹.
